According to patent US20240376163:

T1: GST-tagged VIVIT PPTP
T1 chain: PVIVITPPTP

T2: GST-tagged CABIN1-L-1-2
T2 chain: PEITVTPPTP

T3: GST-tagged VIVIT peptide (VIVIT 10-mer)
T3 chain: PVIVITGPHE

B1: JNK1 (activated recombinant kinase) (protein)
chain: MSRSKRDNNFYSVEIGDSTFTVLKRYQNLKPIGSGAQGIVCAAYDAILERNVAIKKLSRPFQNQTHAKRAYRELVLMKCVNHKNIIGLLNVFTPQKSLEEFQDVYIVMELMDANLCQVIQMELDHERMSYLLYQMLCGIKHLHSAGIIHRDLKPSNIVVKSDCTLKILDFGLARTAGTSFMMTPYVVTRYYRAPEVILGMGYKENVDLWSVGCIMGEMVCHKILFPGRDYIDQWNKVIEQLGTPCPEFMKKLQPTVRTYVENRPKYAGYSFEKLFPDVLFPADSEHNKLKASQARDLLSKMLVIDASKRISVDEALQHPYINVWYDPSEAEAPPPKIPDKQLDEREHTIEEWKELIYKEVMDLEERTKNGVIRGQPSPLAQVQQ
B2: MKK4 (activated recombinant kinase) (protein)
chain: MAAPSPSGGGGSGGGSGSGTPGPVGSPAPGHPAVSSMQGKRKALKLNFANPPFKSTARFTLNPNPTGVQNPHIERLRTHSIESSGKLKISPEQHWDFTAEDLKDLGEIGRGAYGSVNKMVHKPSGQIMAVKRIRSTVDEKEQKQLLMDLDVVMRSSDCPYIVQFYGALFREGDCWICMELMSTSFDKFYKYVYSVLDDVIPEEILGKITLATVKALNHLKENLKIIHRDIKPSNILLDRSGNIKLCDFGISGQLVDSIAKTRDAGCRPYMAPERIDPSASRQGYDVRSDVWSLGITLYELATGRFPYPKWNSVFDQLTQVVKGDPPQLSNSEEREFSPSFINFVNLCLTKDESKRPKYKELLKHPFILMYEERAVEVACYVCKILDQMPATPSSPMYVD

How the values were obtained:
GST-tagged VIVIT PPTP = biological target: T1, GST-tagged VIVIT PPTP
GST-tagged CABIN1-L-1-2 = biological target: T2, GST-tagged CABIN1-L-1-2
[1] = biological target: T3, GST-tagged VIVIT peptide (VIVIT 10-mer)

Protein | in vitro kinase assay (32P incorporation) (GST-tagged VIVIT PPTP) | in vitro kinase assay (32P incorporation) (GST-tagged CABIN1-L-1-2) | in vitro kinase assay (32P incorporation) [1]
B1 | ERK2, JNK1, and p38a phosphorylate purified recombinant GST-tagged peptide containing PPTP sequence (CABIN1-L-1-2 and VIVIT PPTP), but not GST-tagged VIVIT peptide | ERK2, JNK1, and p38a phosphorylate purified recombinant GST-tagged peptide containing PPTP sequence (CABIN1-L-1-2 and VIVIT PPTP), but not GST-tagged VIVIT peptide | but not GST-tagged VIVIT peptide
B2 |  | the MAPK family (EKR, JNK, and p38) and MKK4 directly phosphorylate CABIN1 peptide | 
